{"source": "the nanobody polyreactivity screen of Harvey et al. (2022)"}
{"assay": "yeast display, Sf9 membrane polyspecificity reagent, FACS + sequencing; frameworks hold sequencing errors", "outline": "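A synthetic nanobody library was expressed on Saccharomyces cerevisiae BJ5465 by galactose induction for 36–48 hours. The library was stained for 1 hour at 4 °C with 10% biotinylated, detergent-solubilized Sf9 membrane reagent and enriched with streptavidin microbeads before FACS. Low and high (top ~1%) gates were set on anti-HA fluorescence for expression and streptavidin fluorescence for reagent binding, and each polyreactivity label reflects the gate of origin.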"}
{"sequence": "QVQHVESGGGLVQAGGSHRLSCAASGSTFGSNDMRWYRQSPGKERQLVAAIRGIVGSTYYADSVKGRFTISRDHAKNTVYLQMNSLKPEDTAVYYCNKAEVSTYYQSSSTYGGYDYWGQGTQVTVSS", "polyreactivity (PSR sort gate)": "low polyreactivity"}
{"sequence": "QVQHVESGGGLVQAGGSIRLSGAASGRIILGYDMGWYRQPPGKDRELVAAINSVASTNYADSVKGRFTISRDNAKNTVYLQMNSLKPEDTAVYYCAAVYFLVEADLPAYDYWGQGTQVTVSS", "polyreactivity (PSR sort gate)": "low polyreactivity"}
{"sequence": "QVQHVESGGGLVQAGGSLRISCAASGSILDGYAMGWYRQAPGKEREFVAAITWSGGRTYYADSVKGRFTISRDNAMNTVYLQMNSLKPEDTAVYYCIAVTGSWRYDFWGQGSQVTVSS", "polyreactivity (PSR sort gate)": "high polyreactivity"}
{"sequence": "QVQHVESGGGLVQAGGSLRISSAASGYIFDKYAMGRYRQAPGKERELVAAITYSGGSTYYADSVKGRFTISRDNAKNTVYLQMNSLIAEDTAVNYCAPEVRRSTLEFGYWRQGTQVTVSS", "polyreactivity (PSR sort gate)": "high polyreactivity"}
{"sequence": "QVQHVESGGGLVQAGGSLRLICAASGLTFPYYAMGWYRQDAGKVSELVAAITWSGGTTDYADSVKGRFTISRDNAKNTVYFKMITLKPEDTAVYFCAARVLWKGYYWGQGTQVTVSS", "polyreactivity (PSR sort gate)": "low polyreactivity"}
{"sequence": "QVQHVESGGGLVQAGGSLRLICAASGSTFGNYAMGWYRQAPGKERELVAAISTSGGSTYYADSVKGRFTISRDNAKNTVYLQMNSLKPEDTAVYYCANRLVRGRSRAVSDYYWGQGTQVTVSS", "polyreactivity (PSR sort gate)": "high polyreactivity"}
{"sequence": "QVQHVESGGGLVQAGGSLRLSCAASFYVYAMGWYRQAPGKERELVAAITYSGGGTYYADSVKGRFTISRDNAKKTVYLQMYSLKPEDTAVYYCNARATAYGWRGYAGFEFDYWGQGTQVTVSS", "polyreactivity (PSR sort gate)": "low polyreactivity"}
{"sequence": "QVQHVESGGGLVQAGGSLRLSCAASGFIFDCNTMGWYRQAPGKERELVATIDFSGTSTYYADSVKGRFTISRDNAKNTVYFQMNSLKPEDTAVYYCNAVRSGWGYFFCLNYWGQGTQVTVSS", "polyreactivity (PSR sort gate)": "low polyreactivity"}
{"sequence": "QVQHVESGGGLVQAGGSLRLSCAASGFIFLYYAMGWYRQAHGQERELVAAISRSGGRTYYADSVKGRFTISRDTAKNTVYLQMNSLKPEDTAVYYCAADRLGSISGYDYWGQGTQVTVSS", "polyreactivity (PSR sort gate)": "high polyreactivity"}
{"sequence": "QVQHVESGGGLVQAGGSLRLSCAASGFIFTANAMGWYRQAPGKERELVAGIRSGSSTYYADSVKGRFTISRDNAKNTVYLQLNSLKPEDTAVYYCNAEKFNFIYAYEYWGKGTQVTVSS", "polyreactivity (PSR sort gate)": "low polyreactivity"}
{"sequence": "QVQHVESGGGLVQAGGSLRLSCAASGFIFTPYAMGWYRQAPGKEREFVASITWSGGSTNYADSVKGRFTISRDNAKNTVYLQMNSLKPEDTAVYYCNADTWSPNDYWGLGTQVTVSS", "polyreactivity (PSR sort gate)": "low polyreactivity"}
{"sequence": "QVQHVESGGGLVQAGGSLRLSCAASGFIFWYYAMGLYRQAPGKERELVADISSGGSTNYADSVKGRFTISRDNAKNTVYLQMNSLKPDDTAVYYCAADTFRRDDYWGQGTQVTVSS", "polyreactivity (PSR sort gate)": "low polyreactivity"}
{"sequence": "QVQHVESGGGLVQAGGSLRLSCAASGFTFVYYVMGWYRQAPGKERELVAAINAGGGSTYYADSVKGRFTISRDNAKNTVYLQMNSLKPEDTAVYYCNARVRVRLGRNWSSYYYWGQGTQVTVSS", "polyreactivity (PSR sort gate)": "high polyreactivity"}
{"sequence": "QVQHVESGGGLVQAGGSLRLSCAASGFTFYGNSMGWYRPAPGKERELVAGISWRGGSTYYADSVKGRFTISRDNAKNTVYLQMNSLKPEDTAVYYCAAYLWTNYYLWEYDYWGQGTQVTVSS", "polyreactivity (PSR sort gate)": "high polyreactivity"}
{"sequence": "QVQHVESGGGLVQAGGSLRLSCAASGFTYVVYDMGWYRPAPGKERELVAVITNSGGSTYYADSEKGRFTISRDNAKNTVYLQMNSLKPEDTAVYYCNTENFYGSDIFDSWGQGTQVTVSS", "polyreactivity (PSR sort gate)": "low polyreactivity"}
{"sequence": "QVQHVESGGGLVQAGGSLRLSCAASGGTFGSNTMGWYRQARGKERELVAAITSGVSTYYADSVKGRFTISRDNAKNTVYLQMNSLKPEDTAVFYCAADTTQVQGVEGDYWGQGTQVTVSS", "polyreactivity (PSR sort gate)": "low polyreactivity"}
{"sequence": "QVQHVESGGGLVQAGGSLRLSCAASGIIFRENALGWDRQAPGKERELVAGISSGGNTNYADSGKGRFTISRDNAKNPVYLQMNSLNPEDTAVYYCNTDWYLPRYVLLGYFSGTEDYWGQGTQVTLSS", "polyreactivity (PSR sort gate)": "low polyreactivity"}
{"sequence": "QVQHVESGGGLVQAGGSLRLSCAASGIIFSYNAMGWYRQAPGKERELVAAISSGGRTYYADSVKGRFTISRDNAKNTVYLQMNSLKPEDTAVYYCATTSPHRLYGYYYDYWGQGSQVTVSS", "polyreactivity (PSR sort gate)": "high polyreactivity"}
{"sequence": "QVQHVESGGGLVQAGGSLRLSCAASGITFSFYAMGWYRQAPGKERELVAAINGRGGRTYYADSVKGRFTISRDNAKNTVYLQMNSLKPEDTAVYYCAAVVWSTDYDYWGQGTQVTVSS", "polyreactivity (PSR sort gate)": "low polyreactivity"}
{"sequence": "QVQHVESGGGLVQAGGSLRLSCAASGLIFYYYDMGWYRQPPGKERELVAAISYNGGTTYYSDSVKGRFTISRDNAKNTVYLQMNSLKPEDTAVYYCASEQLVSGYDYWGQGTQVTVSS", "polyreactivity (PSR sort gate)": "low polyreactivity"}
{"sequence": "QVQHVESGGGLVQAGGSLRLSCAASGLIYSYYTMGWYRQAPGKERDLVAAITGSGGTTYYADSVKGRFTISRDNAKNTVYIQMNSLKPEDTAVYYCATPPPEVWQRWYREYDYWGQGTQVTVSS", "polyreactivity (PSR sort gate)": "low polyreactivity"}
{"sequence": "QVQHVESGGGLVQAGGSLRLSCAASGLTFYDYAMGWYRQAPGKERELVADIDFNGGSTSYADSVKGRFTISRDNAKNTVYLQMNSLKPEDTAVYYCAARIHGSWSFDYWGQGTQVTVSS", "polyreactivity (PSR sort gate)": "low polyreactivity"}
{"sequence": "QVQHVESGGGLVQAGGSLRLSCAASGNIFYTNAMGWYRQATGKERELVAAISGSGGRTYYADSVKGRFTISRDNAKNTVYLQMNSLKPEDTAVYYCNAVRRDYYDRTYGYWGQGTQVTVSS", "polyreactivity (PSR sort gate)": "low polyreactivity"}
{"sequence": "QVQHVESGGGLVQAGGSLRLSCAASGNTFLRYAMGWYIKAPGKERELVAAISRSGGSTYYADSVKGRFTISRDTAKNTVYLQMNSLKPEDTAVYYCAARRSSQPDKGYYYWGQGTQVTVSS", "polyreactivity (PSR sort gate)": "high polyreactivity"}
{"sequence": "QVQHVESGGGLVQAGGSLRLSCAASGRIFALYAMGWYRQAPGKERELVAAITSGSTYYADSVKGRFTISRDNAKNTVYLQMNSLKPEDTAVYYCAADLSYWRGGHSRNYWGQGTQVTVSS", "polyreactivity (PSR sort gate)": "low polyreactivity"}
{"sequence": "QVQHVESGGGLVQAGGSLRLSCAASGRIFGYYTMGWYRQAPGKERELVATIDWSGDSTYYADSVKGRFTISRDNAKNTVYLQMNSLKPEDTAVYYCAKRYYLYHYDSWGQGTQVTVSS", "polyreactivity (PSR sort gate)": "low polyreactivity"}
{"sequence": "QVQHVESGGGLVQAGGSLRLSCAASGRIFHYYAMGWYRQAPGKERELVAAITFRGGNTYADSVKGRFTISRDNAKNTVYLQMNSLKPEDTAFYYCADSRLSGYYSRYGYWGQGTQVTVSS", "polyreactivity (PSR sort gate)": "high polyreactivity"}
{"sequence": "QVQHVESGGGLVQAGGSLRLSCAASGRIFHYYAMGWYRQAPGKERELVATISRRGGTTYYADSVKGRFTISRDNAKNTVYLQMNSLKPEDTAVYYCAAKYFGTRYDYWGQGTQVTVSS", "polyreactivity (PSR sort gate)": "high polyreactivity"}
{"sequence": "QVQHVESGGGLVQAGGSLRLSCAASGRIFVRNAMGWYIQAPGKERELVAAITSGASTYYADSVKGRFTISRDNAKYTVYFQMYSVKPEDTAVSYCAAQAVIASWWTVDYYYWGQGTQVTVSS", "polyreactivity (PSR sort gate)": "high polyreactivity"}
{"sequence": "QVQHVESGGGLVQAGGSLRLSCAASGRIFYFNAMGWSSQAPGKERELVAAISGSGGDTYYADSVKGRFTISRDNAKNTVYLQMNSLKPEDTAVYYCAAEVYPWGQGTQVTVAS", "polyreactivity (PSR sort gate)": "low polyreactivity"}
{"sequence": "QVQHVESGGGLVQAGGSLRLSCAASGRIFYGYAMGWYRQAPGKERELVAAISSSGGSTYYADSVKGRFTISRDIAKNTVYLQMNSLKPEDTAVYYCNAQRYRPGYWYDYWGQGTQVTVSS", "polyreactivity (PSR sort gate)": "high polyreactivity"}
{"sequence": "QVQHVESGGGLVQAGGSLRLSCAASGRIFYSNTMGWYRQAPGKERELVAAITWRGGRTHYADSVKGRFTISRDNAKNTVYLQMNSLKPEDTAVYYCAARYIPIQYPSYRTWGGYSWGQGTQVTVSS", "polyreactivity (PSR sort gate)": "high polyreactivity"}
{"sequence": "QVQHVESGGGLVQAGGSLRLSCAASGRILIRNAMGWYRQAPGKERELVAAINRGGGSTYYADSVKGRFTISRDNAKNTVYLQMNSLKPEDTAVYYCAADRKAGYSRVDGDYWGQGTQVTVSS", "polyreactivity (PSR sort gate)": "low polyreactivity"}
{"sequence": "QVQHVESGGGLVQAGGSLRLSCAASGRILVSYAMGWYRQAPGKERELVAAISRSGGSTYYADSVKGRFTISRDNAKNTVYLQMNCLKPEDTAVYYCATGLYIQSTYHRYERYNYWGQGTQVTVSS", "polyreactivity (PSR sort gate)": "high polyreactivity"}
{"sequence": "QVQHVESGGGLVQAGGSLRLSCAASGRIYAMGWYRQAPGKERELVARITKSGTSTYYADSVKGRFTISRDNAKNTVYLQMNSLKPEDTAVYYCNARYWGYWGDHYDYWGQGTQLTVSS", "polyreactivity (PSR sort gate)": "high polyreactivity"}
{"sequence": "QVQHVESGGGLVQAGGSLRLSCAASGRTFGRNAMGWYRQAPGKESEFVASINQRGGCTYYADSVKGRFTISRDIAKNTVYLQMNSLKPEDTAVYYCAKYVYVGYVRQVPYFRYDYWGQGTQVTVSS", "polyreactivity (PSR sort gate)": "high polyreactivity"}
{"sequence": "QVQHVESGGGLVQAGGSLRLSCAASGRTFIINTMGWYRQAPGKERELVAAISKFGATTNYADSVKGRFTISRDNAKNTVYLQMNSLKPEDTAVYYCNARYSGYLRLDYWGQGTQVTVSS", "polyreactivity (PSR sort gate)": "low polyreactivity"}
{"sequence": "QVQHVESGGGLVQAGGSLRLSCAASGRTFNAYTMGWYRQAPGKERELVAAITSSGGNTYYADSVKGRFTISRDNAKNSVYLQMNSLKPEDTAVYYCNTVYLYGTHDYWGQGTQVTGSS", "polyreactivity (PSR sort gate)": "low polyreactivity"}
{"sequence": "QVQHVESGGGLVQAGGSLRLSCAASGRTFNFNTMGWYRQAPGKERELVASITSGGSTNYADSVKGRFTISRDKAKNTVYLQMNSLKPVDTAVYYCATRTTTFWFDYWVQGTQVTVSS", "polyreactivity (PSR sort gate)": "low polyreactivity"}
{"sequence": "QVQHVESGGGLVQAGGSLRLSCAASGRTFPINAMGWYRPAPGKERELVARISRTSGSTYYADSVKGRFTISRDNAKNTVYLQMNSLKPEDTAVYYCAAVRDKYFRASYGYWGQGTQVTVSS", "polyreactivity (PSR sort gate)": "high polyreactivity"}
{"sequence": "QVQHVESGGGLVQAGGSLRLSCAASGRTFSWYVMGWYRQSPGKERELVAAISWNGGRTYYADSVKGRFTISRDNAKNTVYLQMNSLKPEDTAVYYCAAKSYHGYPFDYWGQGTQVTVSS", "polyreactivity (PSR sort gate)": "high polyreactivity"}
{"sequence": "QVQHVESGGGLVQAGGSLRLSCAASGRTFVLYTMGWYRQAPGKERELVAAISGSGGRTYYADSVKGRFTISRDNAKNTVYLQMNSLKPEDTAVYYCAAYGQGLPLYGYWGQGTQVTVSS", "polyreactivity (PSR sort gate)": "high polyreactivity"}
{"sequence": "QVQHVESGGGLVQAGGSLRLSCAASGRTFVYYVMGWYRQAPGKESELVAAITGSGDSTYYADSVKGRFTISRDNAKNNVYLQMNSLKPEDTAVYYCAARRGTRYYDFGYYYWGQGTKVTVSS", "polyreactivity (PSR sort gate)": "high polyreactivity"}
